From PMC5397363 (Molecular microbiology, 2017)
Square brackets hold non-standard residues; d marks the D form. Ends that are not written are not given here. 2Abz = Nc1ccccc1C(=O)O

Key:
Test in all cases: fluorescence polarisation
[1] = target: T1, Staphylococcus aureus Prp H22A (S. aureus, UniProt Q2FXS9 1-106, H22A)
T1 sequence: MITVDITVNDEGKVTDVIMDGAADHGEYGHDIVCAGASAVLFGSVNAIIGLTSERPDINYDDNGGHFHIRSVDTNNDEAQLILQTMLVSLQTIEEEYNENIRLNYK

[2] = target: Staphylococcus aureus Prp C34S (S. aureus, UniProt Q2FXS9 1-106, C34S)
[3] = target: T2, Staphylococcus aureus Prp S38A (S. aureus, UniProt Q2FXS9 1-106, S38A)
T2 sequence: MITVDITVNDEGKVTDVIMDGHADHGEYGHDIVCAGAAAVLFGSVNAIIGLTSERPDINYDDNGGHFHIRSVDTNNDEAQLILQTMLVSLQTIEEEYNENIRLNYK

Measured: binding result

B1: 2-Abz-KLNLQFFASKK-Am, fluorescent L27 cleavage-motif peptide without quencher (peptide)
peptide: [2Abz]KLNLQFFASKK-NH2
modifications: N-terminus assumed
SMILES: CC(C)C[C@H](NC(=O)[C@H](CCCCN)NC(=O)c1ccccc1N)C(=O)N[C@@H](CC(N)=O)C(=O)N[C@@H](CC(C)C)C(=O)N[C@@H](CCC(N)=O)C(=O)N[C@@H](Cc1ccccc1)C(=O)N[C@@H](Cc1ccccc1)C(=O)N[C@@H](C)C(=O)N[C@@H](CO)C(=O)N[C@@H](CCCCN)C(=O)N[C@@H](CCCCN)C(N)=O
binds: [1] | [2] | [3]
